Our source for the amyloid nucleation score values is the supplement of paper PMC12042874.

± gives the uncertainty stated by the source.

The data set is described as follows: amyloid nucleation score (Sup35N fusion, yeast selection) (log enrichment); library NNK3; higher = more nucleation; inactive = no reads after selection. Put shortly:
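Sup35N fusions to peptides of 20 random codons were expressed in psi-negative yeast, induced 24 hours with 100 μM copper sulfate, and grown 7 days at 30°C on medium lacking adenine and uracil. Input and output plasmid inserts were sequenced by Illumina. The nucleation score is the DiMSum log enrichment of output over input reads, centred on the mode score of non-aggregating sequences. Sequences with under 100 input reads were excluded.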
For FKVLSFKSENSSYYVPFGLD, the amyloid nucleation score entry is “inactive”. For FKYLVIVNNWG the value was 2.82 ± 0.071.

FLCTLSMWYCIDRTFMYMCS registered an amyloid nucleation score of -0.053 ± 0.32.

As to FLDFTWMKHGTLALPQAAHQ, the amyloid nucleation score result is “inactive”. For FLDGFVQPISESINLLMFCT the value was “inactive”; for FLFIGSFCGCSVSRPDRYYS, 2.57 ± 0.08; for FLFYLFFFSGRMDR, 0.179 ± 0.33. In the case of FLGFDRVFYGRRISPSFVRT it was “inactive”; in that of FLGTVLLGWFIAMMSRCLGR, 0.048 ± 0.45. On to FLHDFSILIGMICNQIGITL, for which the amyloid nucleation score stood at 1.24 ± 0.17. For FLIVGFPGNKLGC the value was 0.848 ± 0.1; for FLIYAQALLF, “inactive”; for FLLEYYVCMFAVWSIWGMGH, 0.317 ± 0.75. For FLLFFILPSVRDLASHKSRG the value was 0.099 ± 0.19. In the case of FLLTYVNIRGMQP it was 1.49 ± 0.099.

For FLMCVNFVCCIIMCCGTIWG, the amyloid nucleation score result was “inactive”.

For FLMCWVLIVV, the amyloid nucleation score result was “inactive”. In the case of FLMNDSCDRTIWFNVFLSNS it was 0.7 ± 0.18; in that of FLNCFSC, 2.69 ± 0.054. In the case of FLNLIYNLGRLWFQQLTRFK it was “inactive”; in that of FLNTSPYCGTL, “inactive”; in that of FLRLKFRAYDP, 1.01 ± 0.11. In turn, FLRWFWRD had an amyloid nucleation score of 0.785 ± 0.18. For FLSLC the value was “inactive”; for FLSLWLCSRCVSKSCGGFML, “inactive”; for FLTSVGIAYAKFRLGYSCLL, “inactive”. For FLVLVGIGIGMYLFVNHYVD the value was 1.64 ± 0.088; for FLVNFGKDFEIWREHYGVTI, -0.484 ± 1.4. For FLVVVSF the value was “inactive”. FLWGICWYRMVMKAHFDFIC: the amyloid nucleation score entry was “inactive”. In the case of FLYMSMPSLSMVQICYSQRG it was 1.99 ± 0.07; in that of FMCLFMNHYLKFGTSFPGRG, 0.974 ± 0.14.

As for FMDFRSYITGHNWIHAAWPA, the amyloid nucleation score result was “inactive”. For FMPTVQVRLQC the value was “inactive”.

FMTSEWRMGMYGVSGRITWE showed an amyloid nucleation score of 0.73 ± 0.24. In the case of FMVLRYCVILWGFWEYMSSA it was “inactive”; in that of FMYDYLAHLPGDFVNNSCRR, “inactive”. For FMYKLSLLVCDKWLIVILPF the value was “inactive”; for FMYMVNMVNVTVN, “inactive”; for FNDNVFIGRYVRTSYCLNLR, 1.72 ± 0.064. In the case of FNDSLSLTVTRVIF it was “inactive”.

With FNFTVSRVPISVMVLQKRRK, the amyloid nucleation score came to 1.18 ± 0.086.

Consider FNFVLALI, for which the amyloid nucleation score turned out to be 1.69 ± 0.084.

With FNFVYV, the amyloid nucleation score came out at 0.062 ± 0.88.

FNITGRVSYSIVTLCFMQCK: the amyloid nucleation score was 2.75 ± 0.069. In the case of FNLLHTRMTLLYSNIRNRYN it was 0.358 ± 0.62; in that of FNNFRFTGQHR, “inactive”; in that of FNRGKRCNSIRSLVPCNSPL, “inactive”. With FNRGLLNHFFGH, the amyloid nucleation score entry is “inactive”. As to FNSDKMAPLTGLCEVVRFGR, the amyloid nucleation score entry is “inactive”.

FNSNFHHSVNSVNGITFSEA: the amyloid nucleation score entry is “inactive”. In the case of FNSYHTANRYI it was “inactive”. As for FNVLSDPACVRPGLVVRVSE, the amyloid nucleation score result was “inactive”. In the case of FNVSHLVRYSVCYFCGMIEL it was 1.89 ± 0.063.

The substance FNVSTGCRWSWAPDHSPCQE showed an amyloid nucleation score of -0.058 ± 0.66. As to FNYRFSLSHKNGFTRVNYGL, the amyloid nucleation score entry was “inactive”. Turning to FPGSS, the amyloid nucleation score entry was “inactive”. For FPHSSGCYDAVTWSSWNGGH, the amyloid nucleation score result is “inactive”. With FPMCFSFHLIGQ, the amyloid nucleation score entry is “inactive”. In the case of FPMSIESDSLNSGRGLRPWG it was “inactive”; in that of FPRNVPG, “inactive”; in that of FPRSSRIFSCCSRIRLCAFV, “inactive”. For FPSSMGRQYIGVCKYLSDPP the value was “inactive”. In the case of FPYLRRTMGVLIYQCVPIRG, the amyloid nucleation score result was “inactive”.

For FPYNGALSFCIWYRVASRVY, the amyloid nucleation score result is “inactive”. For FQKGLRQDYQVFLFDSNRFW the value was “inactive”. In the case of FQLWVKRTYNAEGNLYSPDD it was “inactive”; in that of FRCPMFFNCSSVLTSHVSLA, 1.34 ± 0.16. For FRFSR the value was “inactive”; for FRGCYRFELLSDTCISRELV, “inactive”; for FRGEMLFKVQF, 0.275 ± 0.27.

FRHCGCHTFLCIIVTDRHHY showed an amyloid nucleation score of 1.85 ± 0.061. Take FRHCWRR: the amyloid nucleation score was -0.532 ± 1.1.

Turning to FRMTPHIGALSNRLHVTTWL, the amyloid nucleation score was -0.226 ± 0.7. FRNRCVNDD: the amyloid nucleation score entry is “inactive”. Regarding FRNVGMLGSNLGFGINNDIN, the amyloid nucleation score entry is “inactive”. In the case of FRRFSGTGFIMSEIAYFFSI it was “inactive”; in that of FRSEVGVNFNRTLWRYNRVY, “inactive”. For FRSFIGKNHEKRSVILCILE, the amyloid nucleation score entry was “inactive”.

For the substance FRSWPS, the amyloid nucleation score result is “inactive”. For FRTTLKTR the value was “inactive”; for FRVNKYNISFLVRQSGIWLA, “inactive”; for FRVYQNIDTERDSRTSPKES, “inactive”. Turning to FRYPYNPVIREFCTCSSWFL, the amyloid nucleation score turned out to be 1.73 ± 0.069. As for FRYRNSSTEVCWKRSWLTLG, the amyloid nucleation score entry is “inactive”. Take FRYVIVYKRSSFGYRKCIEC: the amyloid nucleation score result was “inactive”. For FSCIPCG the value was “inactive”; for FSCPRVSIFGLCSNCMYQWW, 2.43 ± 0.057. Take FSDNSSRSGSNSEWYGS: the amyloid nucleation score entry is “inactive”. FSDVGLWFGAYRKVVVVKLF: the amyloid nucleation score entry is “inactive”. In the case of FSFRTMYVFDPLYNKYRIFM it was 0.125 ± 0.6.

Regarding FSHFMSSTYYCC, the amyloid nucleation score was 1.73 ± 0.12.

Take FSHVV: the amyloid nucleation score entry was “inactive”. For FSIDTNGSCYRIDARHVK, the amyloid nucleation score entry was “inactive”.

In turn, FSIVMTRFSFGSRVGSFYNF came in with an amyloid nucleation score of 0.151 ± 0.44. For FSMCCTWYFKFHL the value was 0.596 ± 0.14; for FSNQSNFNMELLLKDRDSTP, “inactive”; for FSPMYFNWMIGVVCSGIVGN, -0.349 ± 0.8. In the case of FSPYYLPLYVLVVRIKIQLG it was “inactive”.

As for FSSFG, the amyloid nucleation score entry was “inactive”. Take FSSRVRTMPLVGVM: the amyloid nucleation score entry is “inactive”.

In turn, FSTWEELLTSHLKCFTAGWG displayed an amyloid nucleation score of -0.458 ± 1.4. For FSVFN the value was “inactive”; for FSVVLYKRWWRTRMATGLLK, “inactive”. With FSYSFVTRDMATYGRTLVKS, the amyloid nucleation score result is “inactive”. For FTFLMDRY the value was -0.083 ± 0.34; for FTGFN, “inactive”. For FTLKRLPGYSHRSLEWLPPY the value was “inactive”; for FTNLYMPTRERHCRGSHMW, “inactive”; for FTNYRSRGNMVRGGPCRPSY, “inactive”. For the substance FTQYFLTRCDYYVEYYMLDR, the amyloid nucleation score entry was “inactive”. For FTSFSYYMVCFCADIIKQG the value was 1.97 ± 0.065; for FTSYS, “inactive”; for FTVCFVLPIAITPMMWDIWY, “inactive”. For FTVTCPGREANIYIFFRGGR the value was 1.37 ± 0.13; for FTYWLFSLDR, “inactive”; for FVCYNTFSSSACSLCNHLSH, 2.4 ± 0.053.

As to FVDLSGRSCRVPTEVWGFHS, the amyloid nucleation score result was “inactive”. In the case of FVEAANNSFCYESSNIT it was “inactive”; in that of FVFGN, “inactive”; in that of FVFMTDGGVLNVLAWCISEA, “inactive”. For FVGIIGWMIYVEGVY, the amyloid nucleation score entry is “inactive”. Regarding FVGSLDFNGVSEGFVASHCI, the amyloid nucleation score entry was “inactive”. In the case of FVHSLRVVIW it was “inactive”; in that of FVIELCMWVRLEDVKLCFID, “inactive”.

Take FVILFVVFNYINALCDCNID: the amyloid nucleation score came to 0.377 ± 0.27.

As to FVIVGSGSQSPEYIWNVKYE, the amyloid nucleation score is -0.049 ± 0.32. For FVIVSL the value was 1.6 ± 0.069; for FVKCSRMF, “inactive”.

Substance FVLGGFLNKN showed an amyloid nucleation score of -0.11 ± 1.4.

On to FVLIPSHRAW, for which the amyloid nucleation score entry was “inactive”. FVMRYRVVYSDRCFELGWHA: the amyloid nucleation score was -0.567 ± 0.76.

FVNISHMY: the amyloid nucleation score result was “inactive”.

FVPCVWLGSGNCLCTDTMLW returned an amyloid nucleation score of 1.63 ± 0.11.
